Experimental data reported in paper PMC10581125.

Target: Klebsiella phage GH-K3-derived depolymerase Depo32 (Klebsiella phage GH-K3)
Assay: cryo-EM structure; Depo32 purified by size exclusion chromatography, 0.5-1.0 mg/mL, on glow-discharged C-flat carbon grids; 2.46 Å nonsymmetrized and 2.32 Å C3-symmetrized maps; homotrimer

Klebsiella phage GH-K3-derived depolymerase Depo32 (enzyme)
stoichiometry N: 3
